Data from patent publication US20190119366A1 (ADC THERAPEUTICS, published 2019).
Residue numbers refer to the chain shown, from its start. Values belong to the binder of their own block, whether it stands above or below them.

Experiments:
[1] = biological target: T1, recombinant human KAAG1 (Kidney associated antigen 1) (human, UniProt Q9UBP8 1-84); experiment: not described; list of antibodies generated
T1 construct: also called KAAG1 protein
T1 sequence: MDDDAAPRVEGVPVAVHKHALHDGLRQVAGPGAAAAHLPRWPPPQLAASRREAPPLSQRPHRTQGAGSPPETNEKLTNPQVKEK

[2] = biological target: T1, recombinant human KAAG1 (Kidney …); experiment: SPR (BioRad ProteOn XPR36): antibody captured on an anti-human IgG Fc surface, KAAG1 injected as analyte, 1:1 Langmuir fit
Experimental: (§1) Immediately after the activation, a 13 μg/mL solution of anti-human IgG Fc fragment specific in 10 mM NaOAc pH 4.5 was injected in the analyte direction at a flow rate of 25 μL/min until approximately 8000 resonance units (RUs) were immobilized. Remaining active groups were quenched by a 300 s injection of 1M ethanolamine at 30 μL/min in the analyte direction, and this also ensures mock-activated interspots are created for blank referencing. The screening of the 3A4 variants for binding to KAAG1 occurred in two steps: an indirect capture of 3A4 variants from cell supernatant onto the anti-human IgG Fc fragment specific surface in the ligand direction(vertical) followed by a KAAG1 injection in the analyte direction. Firstly, one buffer injection for 30 s at 100 uL/min in the ligand direction was used to stabilize the baseline. […] Four to five 3A4 variants along with wild-type 3A4 were simultaneously injected in individual ligand channels for 240 s at flow 25 μL/min. […] The first ligand channel was left empty to use as a blank control if required. This 3A4 capture step was immediately followed by two buffer injections in the analyte direction to stabilize the baseline, and then the gel filtration purified KAAG1 was injected. For a typical screen, five KAAG1 concentrations (8, 2.66, 0.89, 0.29, and 0.098 nM) and buffer control were simultaneously injected in individual analyte channels at 50 μL/min for 120 s with a 600s dissociation phase, resulting in a set of binding sensorgrams with a buffer reference for each of the captured 3A4 variants. The anti-human IgG Fc fragment specific—3A4 complexes were regenerated by a 18 s pulse of 0.85% phosphoric acid for 18 s at 100 μL/min to prepare the anti-human IgG Fc fragment specific surface for the next injection cycle. Sensorgrams were aligned and double-referenced using the buffer blank injection and interspots, and the resulting sensorgrams were analyzed using ProteOn Manager software v3.0.

[3] = biological target: T1, recombinant human KAAG1 (Kidney …); experiment: SPR (BioRad ProteOn XPR36); fold difference of KD relative to LcHc
Experimental: as §1

binding result [1]: binds
B1: 3D1 anti-KAAG1 antibody (antibody, V domains shown)
VH: EVQLQESGPDLVKPSQSLSLTCTVTGFSITSGYGWHWIRQFPGDKLEWMGYISFNGDYNYNPSLKSRISITRDTSKNQFFLQLSSVTTEDTATYYCASSYDGLFAYWGQGTLVTVSA
VL: DIKMTQSPSSMYASLGERVTITCKASQDIHTYLNWFQQKPGKSPETLIYRANRLVDGVPSRFSGSGSGQDYSLTISSLEYEDMGIYYCLQYDEFPLTFGAGTKLELK
notes: Variable regions only; Isolated from a Fab library

binding result [1]: binds
B2: 3C4 anti-KAAG1 antibody (antibody, V domains shown)
VH: B1 VH with D44N, S53N, F54Y, N55D, D57H, Y58N, N59D, R72Q, S84N
VL: DIVMSQSPSSMYASLGERVTITCKASQDIHNFLNWFQQKPGKSPKTLIFRANRLVDGVPSRFSGSGSGQDYSLTISSLEFEDLGIYSCLQYDEIPLTFGAGTKLELR

binding result [1]: binds
B3: 3C2 anti-KAAG1 antibody (antibody, V domains shown)
VH: B1 VH with E1D, D44N, Y58S, S84N, T88S, T111P
VL: B1 VL with K3Q, I21L, T31N, E45K, Y49H, D56A, M83L, E93A
notes: as for B1

binding result [1]: binds
B4: 3F6 anti-KAAG1 antibody (antibody, V domains shown)
VH: EVQLQQSGPELVKPGASVKMSCKASGYIFTEYNIHWVKQKPGQGPEWIGNINPYNDVTEYNEKFKGKATLTSDKASSTAYMDLSSLTSEDSAVYYCARWGLRNWGQGTLVTVSA
VL: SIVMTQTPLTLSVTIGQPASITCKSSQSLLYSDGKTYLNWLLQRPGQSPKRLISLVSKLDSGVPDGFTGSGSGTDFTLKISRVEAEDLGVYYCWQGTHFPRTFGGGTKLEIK
notes: as for B1

binding result [1]: binds
B5: 3E8 anti-KAAG1 antibody (antibody, V domains shown)
VH: B4 VH with G8V, A24T, I28T, I34M, D56N, A75S, M81L
VL: not shown
notes: as for B1

Kd [2]: 211 pM
koff [2]: 0.00119 s⁻¹
kon [2]: 5.65e+06 M⁻¹ s⁻¹
Fold diff. [3]: 13.2
B6: humanized 3A4 antibody Lh1Hh2 (antibody, human IgG1, kappa, V domains shown)
VH: QIQLVQSGAEVKKPGASVKVSCKASGYTFTDDYMSWVRQAPGQGLEWMGDINPYNGDTNYNQKFKGRVTITADKSTSTAYMELSSLRSEDTAVYYCARDPGAMDYWGQGTLVTVSS
VL: DIVMTQTPLSLPVTPGEPASISCRSSQSLLHSNGNTYLEWYLQKPGQSPQLLIYTVSNRFSGVPDRFSGSGSGTDFTLKISRVEAEDVGVYYCFQGSHVPLTFGQGTKLEIKR
notes: Human IgG1/kappa

Kd [2]: 16 pM
koff [2]: 0.000121 s⁻¹
kon [2]: 7.72e+06 M⁻¹ s⁻¹
B7: chimeric 3A4 anti-KAAG1 antibody (mouse variable regions, human IgG1/kappa constant regions) (antibody, V domains shown)
VH: QIQLVQSGPEMVKPGASVKMSCKASGYTFTDDYMSWVKQSHGKSLEWIGDINPYNGDTNYNQKFKGKAILTVDKSSSTAYMQLNSLTSEDSAVYYCARDPGAMDYWGQGTSVTVSS
VL: DVVMTQTPLSLAVSLGDQASISCRSSQSLLHSNGNTYLEWYLQKPGQSPKLLIHTVSNRFSGVPDRFSGSGSGTDFTLKISRVEAEDLGVYYCFQGSHVPLTFGAGTRLELKR
notes: It is treated here as the same molecule; also called LcHc; murine 3A4 (LcHc)

binding result [1]: binds
B8: 3D3 anti-KAAG1 antibody (antibody, V domains shown)
VH: EVQLQQSVAELVRPGASVTLSCKASGYIFTDYEIHWVKQTPVHGLEWIGVIDPETGNTAFNQKFKGKATLTADISSSTAYMELSSLTSEDSAVYYCMGYSDYWGQGTTLTVSS
VL: DIVMTQSPSSLAVSIGQKVTMNCKSSQSLLNSNFQKNFLAWYQQKPGQSPKLLIYFASTRESSIPDRFIGSGSGTDFTLTISSVQAEDLADYFCQQHYSTPLTFGAGTKLELK

binding result [1]: binds
B9: 3G12 anti-KAAG1 antibody (antibody, V domains shown)
VH: B8 VH with L20V, V42A
VL: DIVMTQSPKFMSTSVGDRVSITCKASQDVGTAVAWYQQKPGQSPELLIYWTSTRHTGVPDRFSGSGSGTDFTLTISSVQAEDLADYFCQQHYSIPLTFGAGTKLELR
notes: as for B1

binding result [1]: binds
B10: 3E12 anti-KAAG1 antibody (antibody, V domains shown)
VH: B8 VH with E1Q, V8E, R13K, T19K, I28T, N57D, F60Y, I74K, S85R, Y99H
VL: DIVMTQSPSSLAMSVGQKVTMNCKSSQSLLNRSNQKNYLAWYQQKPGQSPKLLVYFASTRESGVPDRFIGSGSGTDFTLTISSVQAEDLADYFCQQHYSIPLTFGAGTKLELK
notes: as for B1

binding result [1]: binds
B11: 3F7 anti-KAAG1 antibody (antibody, V domains shown)
VH: B8 VH with E1Q, V2A, Q3Y, V8G, I28T, N57D, F60Y, G66D, I74K, S75A
VL: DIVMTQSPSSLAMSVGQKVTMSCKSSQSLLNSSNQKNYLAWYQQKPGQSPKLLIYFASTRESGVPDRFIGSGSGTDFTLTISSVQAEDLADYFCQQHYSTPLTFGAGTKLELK
notes: as for B1

binding result [1]: binds
B12: 3B11 anti-KAAG1 antibody (antibody, V domains shown)
VH: B8 VH with I28T, I34M, H43R, E54A, N57D, F60Y, I74K, T78A, Y80F
VL: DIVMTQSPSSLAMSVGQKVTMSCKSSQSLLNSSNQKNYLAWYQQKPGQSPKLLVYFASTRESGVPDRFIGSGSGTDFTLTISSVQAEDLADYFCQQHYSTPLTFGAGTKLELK
notes: as for B1

binding result [1]: binds
B13: 3B1 anti-KAAG1 antibody (antibody, V domains shown)
VH: B8 VH with E1Q, S7P, V8G, I28T, N57G, F60Y, A72T, I74K, S84R
VL: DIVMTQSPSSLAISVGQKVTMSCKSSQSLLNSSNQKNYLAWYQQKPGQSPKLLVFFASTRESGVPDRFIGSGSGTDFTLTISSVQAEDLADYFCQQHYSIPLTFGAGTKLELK
notes: as for B1

binding result [1]: binds
B14: 3F4 anti-KAAG1 antibody (antibody, V domains shown)
VH: B8 VH with V8G, I28T, N57S, F60Y, I74K, S75A
VL: DIVMTQSPSSLTVTAGEKVTMSCKSSQSLLNTSNQKNYLAWYQQKPGQSPKLLVYFASTRASGVPDRFIGSGSGTDFTLTISSVQAEDLADYFCQQHYSTPLTFGAGTKLELK
notes: as for B1

binding result [1]: binds
B15: 3C3 anti-KAAG1 antibody (antibody, V domains shown)
VH: B8 VH with L11V, I28T, N57V, F60Y, K63R, K65R, G66D, A72T, I74K, Y95F
VL: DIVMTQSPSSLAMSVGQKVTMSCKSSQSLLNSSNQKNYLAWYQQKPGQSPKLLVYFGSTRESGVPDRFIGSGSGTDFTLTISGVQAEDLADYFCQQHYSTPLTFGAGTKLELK
notes: as for B1

binding result [1]: binds
B16: 3G8 anti-KAAG1 antibody (antibody, V domains shown)
VH: B8 VH with E1Q, Q5K, V8G, I28T, I34V, E54A, N57D, F60Y, I74K, L83V
VL: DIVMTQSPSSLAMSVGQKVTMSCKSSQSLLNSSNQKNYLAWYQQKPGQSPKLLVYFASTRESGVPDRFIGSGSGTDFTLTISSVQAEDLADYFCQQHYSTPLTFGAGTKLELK
notes: as for B1

binding result [1]: binds
B17: 3G5 anti-KAAG1 antibody (antibody, V domains shown)
VH: QVQLQQPGAELVRPGASVTLSCKASGYTFTDYEIHWVKQTPVHGLEWIGVLDPGTGRTAYNQKFKDKATLSADKSSSTAYMELSSLTSEDSAVYYCMSYSDYWGPGTTLTVSS
VL: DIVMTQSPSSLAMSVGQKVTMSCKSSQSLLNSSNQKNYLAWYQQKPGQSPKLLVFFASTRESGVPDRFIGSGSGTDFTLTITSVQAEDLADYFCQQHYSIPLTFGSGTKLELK
notes: as for B1

binding result [1]: binds
B18: 3B8 anti-KAAG1 antibody (antibody, V domains shown)
VH: B8 VH with V8G, I28T, N57D, F60Y, K63N, K65T, I74K, S100A
VL: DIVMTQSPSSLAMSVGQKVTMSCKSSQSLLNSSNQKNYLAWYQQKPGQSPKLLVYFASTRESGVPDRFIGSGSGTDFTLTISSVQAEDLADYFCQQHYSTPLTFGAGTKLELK
notes: as for B1

binding result [1]: binds
B19: 3E9 anti-KAAG1 antibody (antibody, V domains shown)
VH: B8 VH with V8G, V18A, I28T, I34M, N57S, F60Y, I74K, S100A
VL: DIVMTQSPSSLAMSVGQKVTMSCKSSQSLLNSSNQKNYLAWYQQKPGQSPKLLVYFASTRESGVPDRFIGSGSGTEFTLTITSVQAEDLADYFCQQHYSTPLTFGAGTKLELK
notes: as for B1

binding result [1]: binds
B20: 3F10 anti-KAAG1 antibody (antibody, V domains shown)
VH: B8 VH with S17P, I28T, I34V, N57A, F60Y, I74K, T78A, S85R, G98S
VL: B14 VL with V13M, T14S, A15V, E17Q, K36L, R60T, A61E
notes: as for B1

binding result [1]: binds
B21: 3E10 anti-KAAG1 antibody (antibody, V domains shown)
VH: EVQLQQSGPELVKPGASVKISCKASGDTFTDYYMNWVKQSHGKSLEWIGDINPNYGGITYNQKFKGKATLTVDTSSSTAYMELRGLTSEDSAVYYCQAYYRNSDYWGQGTTLTVSS
VL: DIVMTQAAPSVPVTPGESVSISCRSSKSLLHSNGNTYLYWFLQRPGQSPQLLIYRMSNLASGVPDRFSGSGSGTAFTLRISRVEAEDVGVYYCMQHLEYPYTFGGGTKLEIK
notes: as for B1

binding result [1]: binds
B22: 3A9 anti-KAAG1 antibody (antibody, V domains shown)
VH: QVQVQQPGAELVRPGASVTLSCKASGYIFTDYEVHWVRQRPVHGLEWIGVIDPETGDTAYNQKFKGKATLTADKSSSTAYMELSSLTAEDSAVYYCIGYADYWGQGTTLTVSS
VL: DIVMTQSPSSLAMSLGQKVTMSCKSSQSLLNSNNQLNYLAWYQQKPGQSPKLLVYFASTRKSGVPDRFIGSGSGTDFTLTITSVQAEDLADYFCQQHFNTPLTFGAGTKLELK
notes: as for B1

binding result [1]: binds
B23: 4A2 anti-KAAG1 antibody (antibody, V domains shown)
VH: QVKLQQSGTELVRPGASVTLSCKASGYKFTDYEMHWVKQTPVHGLEWIGGIDPETGGTAYNQKFKGKAILTADKSSTTAYMELRSLTSEDSAVYYCISYAMDYWGQGTSVTVSS
VL: DIVMTQSPSSLAMSVGQKVTMNCKSSQSLLNNSNQKNYLAWYQQKPGQSPKLLLYFASTRESGVPDRFIGSGSGTYFTLTISSVQAEDLADYFCQQHYSTPLTFGAGTKLDLK
notes: as for B1

binding result [1]: binds
B24: 3E6 anti-KAAG1 antibody (antibody, V domains shown)
VH: B23 VH with K3Q, T9A, K28T, T30S, G57D, A59V, I69T, T77S, R84S
VL: B1 VL with K3Q, I21L, T31N, E45K, Y49H, D56A, M83L, E93A
notes: as for B1

binding result [1]: binds
B25: 3A2 anti-KAAG1 antibody (antibody, V domains shown)
VH: EIQLQQSGPELVKPGASVKMSCKTSGYTFTDYNMHWVKQKPGQGLEWIGYINPYNDVTEYNEKFKGRATLTSDKSSSTAYMDLSSLTSDDSAVYFCAWFGLRQWGQGTLVTVST
VL: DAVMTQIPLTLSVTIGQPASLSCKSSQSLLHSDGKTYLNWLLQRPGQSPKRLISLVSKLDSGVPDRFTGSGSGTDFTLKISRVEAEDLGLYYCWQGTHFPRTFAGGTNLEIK
notes: as for B1
